One substance from paper PMC4091980 can be followed below.

The target of assay [1] is PH domain of AKT (UniProt P31749). The experiment in a line: SPR.
In assay [2] the target is PH domain of PDK1 (UniProt O15530). As to the kind of experiment: SPR.
Sequence of UniProt O15530 (O15530 459-550): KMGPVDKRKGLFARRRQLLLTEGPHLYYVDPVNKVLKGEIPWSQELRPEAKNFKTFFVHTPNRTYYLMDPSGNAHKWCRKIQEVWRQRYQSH

As a reminder, the Kd is the equilibrium constant for the complex coming apart. Higher therefore signals weaker binding. Turning to “PH domain of AKT (from UniProt P31749 5-108) (domain or fragment)”, the Kd is 0.0376 µM in assay [1] and 0.0498 µM in assay [2].
